Molecular target: F241A IgG1 Fc fragment (human)
Assay: crystal structure

stoichiometry N: 2
Substance: F241A IgG1 Fc fragment (domain or fragment)
